Measurements taken from article PMC2951910, “Signal Transduction Protein Array Analysis Links LRRK2 to Ste20 Kinases and PKC Zeta That Modulate Neuronal Plasticity” (PLoS ONE, 2010).

How the values were obtained:
[1] = molecular target: T1, kinase-inactive GST-tagged LRRK2(D1994A) (970-2527) (human, UniProt Q5S007 970-2527, D1994A); experiment: peptide or protein array; BCCP-tagged full-length human proteins held on streptavidin-coated slides, pre-incubated with 100 uM cold ATP; overlaid with 130 nM GST-LRRK2 (G2019S or D1994A) with 10 uM ATP and [gamma-33P]ATP for 1 h at 30 C; washed in 0.5% SDS; radioactive signal on the spots read on phosphoscreens; buffer only as control; details: both partners purified
T1 construct: also called kinase-dead LRRK2(D1994A); source: bought: Invitrogen

[2] = molecular target: T2, GST-tagged LRRK2(G2019S) (amino acids 970-2527) (human, UniProt Q5S007 970-2527, G2019S, autophosphorylated (10 uM cold ATP, 1 h, 30 C) before the binding arrays; sites not stated); experiment: peptide or protein array; BCCP-tagged full-length human proteins held on streptavidin-coated slides; overlaid with autophosphorylated GST-LRRK2(G2019S) (970-2527) or recombinant GST with cold ATP for 1 h at 30 C; washed in buffer with 0.5% SDS; detected with an Alexa 488-conjugated anti-GST antibody; details: both partners purified
T2 construct: leucine-rich repeat kinase 2 (LRRK2), human, amino acids 970-2527, with the Parkinson's disease-linked mutation G2019S; In the 33P arrays the kinase was not autophosphorylated beforehand, but ATP was present during the incubation; also called recombinant LRRK2(G2019S); leucine-rich repeat kinase 2; source: bought: Invitrogen; not shown: GST, N-terminal, kept
T2 sequence (Q5S007 970-2527 G2019S): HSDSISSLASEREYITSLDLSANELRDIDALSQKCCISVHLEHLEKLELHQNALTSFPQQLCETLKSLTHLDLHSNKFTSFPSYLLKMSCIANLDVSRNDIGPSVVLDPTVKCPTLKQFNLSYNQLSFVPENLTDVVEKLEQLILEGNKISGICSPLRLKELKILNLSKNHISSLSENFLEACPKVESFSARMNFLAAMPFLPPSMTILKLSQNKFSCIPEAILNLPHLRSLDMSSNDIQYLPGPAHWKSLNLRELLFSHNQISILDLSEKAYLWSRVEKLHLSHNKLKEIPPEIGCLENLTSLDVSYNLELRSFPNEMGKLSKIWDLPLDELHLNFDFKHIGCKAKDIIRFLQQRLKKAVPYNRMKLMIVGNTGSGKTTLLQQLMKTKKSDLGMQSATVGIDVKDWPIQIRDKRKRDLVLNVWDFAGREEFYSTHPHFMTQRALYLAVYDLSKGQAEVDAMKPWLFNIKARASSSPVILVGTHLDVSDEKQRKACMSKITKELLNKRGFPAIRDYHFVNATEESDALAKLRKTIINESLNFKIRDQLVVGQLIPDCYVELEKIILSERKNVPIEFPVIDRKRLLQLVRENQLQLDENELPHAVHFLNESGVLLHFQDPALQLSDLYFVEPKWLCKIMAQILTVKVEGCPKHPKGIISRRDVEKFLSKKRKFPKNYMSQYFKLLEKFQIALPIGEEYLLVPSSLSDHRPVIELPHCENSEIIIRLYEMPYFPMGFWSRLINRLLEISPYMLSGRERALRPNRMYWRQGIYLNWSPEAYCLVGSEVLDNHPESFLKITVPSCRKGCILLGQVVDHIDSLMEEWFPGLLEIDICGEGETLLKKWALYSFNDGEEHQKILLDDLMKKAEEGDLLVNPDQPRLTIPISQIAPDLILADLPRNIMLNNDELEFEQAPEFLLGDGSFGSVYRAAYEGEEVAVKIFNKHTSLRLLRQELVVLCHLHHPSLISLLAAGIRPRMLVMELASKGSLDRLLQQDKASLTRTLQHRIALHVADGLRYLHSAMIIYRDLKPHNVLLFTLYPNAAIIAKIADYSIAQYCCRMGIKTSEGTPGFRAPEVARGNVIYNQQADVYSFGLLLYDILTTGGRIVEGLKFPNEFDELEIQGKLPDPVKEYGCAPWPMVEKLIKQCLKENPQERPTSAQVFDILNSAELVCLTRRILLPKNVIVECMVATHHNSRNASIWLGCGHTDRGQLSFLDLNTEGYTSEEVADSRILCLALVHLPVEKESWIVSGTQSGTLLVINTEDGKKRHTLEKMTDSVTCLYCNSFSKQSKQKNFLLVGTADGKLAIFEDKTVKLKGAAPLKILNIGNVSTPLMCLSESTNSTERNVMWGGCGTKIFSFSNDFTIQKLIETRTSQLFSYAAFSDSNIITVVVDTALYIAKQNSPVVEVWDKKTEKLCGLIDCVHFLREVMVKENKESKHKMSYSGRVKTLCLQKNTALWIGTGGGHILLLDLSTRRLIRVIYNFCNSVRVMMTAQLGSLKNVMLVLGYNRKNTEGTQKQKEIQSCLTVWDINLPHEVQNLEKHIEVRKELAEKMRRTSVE

T1 sequence (Q5S007 970-2527 D1994A): as the sequence (Q5S007 970-2527 G2019S) above, with D1025A, S1050G counted along it

B1: Protein kinase C, zeta (PRKCZ), arrayed (enzyme, human, UniProt Q05513 1-592, looked up)
chain: MPSRTGPKMEGSGGRVRLKAHYGGDIFITSVDAATTFEELCEEVRDMCRLHQQHPLTLKWVDSEGDPCTVSSQMELEEAFRLARQCRDEGLIIHVFPSTPEQPGLPCPGEDKSIYRRGARRWRKLYRANGHLFQAKRFNRRAYCGQCSERIWGLARQGYRCINCKLLVHKRCHGLVPLTCRKHMDSVMPSQEPPVDDKNEDADLPSEETDGIAYISSSRKHDSIKDDSEDLKPVIDGMDGIKISQGLGLQDFDLIRVIGRGSYAKVLLVRLKKNDQIYAMKVVKKELVHDDEDIDWVQTEKHVFEQASSNPFLVGLHSCFQTTSRLFLVIEYVNGGDLMFHMQRQRKLPEEHARFYAAEICIALNFLHERGIIYRDLKLDNVLLDADGHIKLTDYGMCKEGLGPGDTTSTFCGTPNYIAPEILRGEEYGFSVDWWALGVLMFEMMAGRSPFDIITDNPDMNTEDYLFQVILEKPIRIPRFLSVKASHVLKGFLNKDPKERLGCRPQTGFSDIKSHAFFRSIDWDLLEKKQALPPFQPQITDDYGLDNFDTQFTSEPVQLTPDDEDAIKRIDQSEFEGFEYINPLLLSTEESV
modifications: biotin on the biotin-carboxyl carrier protein tag
notes: protein kinase C zeta (PRKCZ), human, full length, spotted on the array; Held on streptavidin-coated glass slides by the biotinylated tag; also called PKC zeta; source: bought: Sigma Panorama Human Protein Function Array - Signal Transduction; expressed in insect cells
[1]
  binding result: binds
[2]
  binding result: binds

B2: Serine/threonine kinase 25 (STE20 homolog, yeast) (STK25), arrayed (enzyme)
chain: not shown
modifications: biotin on the biotin-carboxyl carrier protein tag
notes: serine/threonine kinase 25 (STK25), human, full length, spotted on the array; Held on streptavidin-coated glass slides by the biotinylated tag; The array was pre-incubated with 100 uM cold ATP in the substrate arrays; source: bought: Sigma Panorama Human Protein Function Array - Signal Transduction; expressed in insect cells
[2]
  binding result: binds

B3: TNF receptor-associated factor 2, transcript variant 1 (TRAF2), arrayed (natural protein, human, UniProt Q12933 1-501, looked up)
chain: MAAASVTPPGSLELLQPGFSKTLLGTKLEAKYLCSACRNVLRRPFQAQCGHRYCSFCLASILSSGPQNCAACVHEGIYEEGISILESSSAFPDNAARREVESLPAVCPSDGCTWKGTLKEYESCHEGRCPLMLTECPACKGLVRLGEKERHLEHECPERSLSCRHCRAPCCGADVKAHHEVCPKFPLTCDGCGKKKIPREKFQDHVKTCGKCRVPCRFHAIGCLETVEGEKQQEHEVQWLREHLAMLLSSVLEAKPLLGDQSHAGSELLQRCESLEKKTATFENIVCVLNREVERVAMTAEACSRQHRLDQDKIEALSSKVQQLERSIGLKDLAMADLEQKVLEMEASTYDGVFIWKISDFARKRQEAVAGRIPAIFSPAFYTSRYGYKMCLRIYLNGDGTGRGTHLSLFFVVMKGPNDALLRWPFNQKVTLMLLDQNNREHVIDAFRPDVTSSSFQRPVNDMNIASGCPLFCPVSKMEAKNSYVRDDAIFIKAIVDLTGL
modifications: biotin on the biotin-carboxyl carrier protein tag
notes: TNF receptor-associated factor 2 (TRAF2), human, full length, spotted on the array; Held on streptavidin-coated glass slides by the biotinylated tag; also called tumor necrosis factor receptor-associated factor 2; source: bought: Sigma Panorama Human Protein Function Array - Signal Transduction; expressed in insect cells
[2]
  binding result: binds
